Experimental data as given in patent publication US6528620B1, “Sid-polyamide fusions: a potent method of regulating gene expression” (University of Utah Research Foundation, priority 1999, dated 2003).
Where no end group is shown, it is not given here.

B2: VP16PAH2 (amino acids 251-404 of mSin3A encoding the PAH2 domain fused to the VP16 activation domain) (other)
chain: SKPSQLQAHTPASQQTPPLPPYASPRSPPVQPHTPVTISLGTAPSLQNNQPVEFNHAINYVNKIKNRFQGQPDIYKAFLEILHTYQKEQRNAKEAGGNYTPALTEQEVYAQVARLFKNQEDLLSEFGQFLPDANSSVLLSKTTAEKVDSVRNDH
notes: range 251-404; Prey of the directed two-hybrid assay in S. cerevisiae L40

How the values were obtained:
[1] = target: mSin3-HDAC corepressor complex; assay: cell-based or functional assay
[2] = test system: GAL4 DNA binding domain-responsive reporter; assay: Transcription assay, Gal4-14D luciferase reporter in 293 cells; type: cell-based; conditions: relative to the GALDBD alone level, 24 h after transfection
Procedure: Transcription Assays—293 cells were grown in Dulbecco's modified Eagle's medium with 10% defined calf serum (HyClone). 2×10^5 cells were planted on 60-mm dishes and transfected with 200 ng of the Gal4-14D luciferase reporter (Ayer et al., Mol. Cell Biol. 16:5772-5781 (1996)) and 1 μg of the indicated expression vector. Cells harvested 24 h after transfection and luciferase and β-galactosidase activity measured according to the manufacturers' protocols (Promega and Tropix). Each transfection was performed at least twice in triplicate. Error shown is the standard of the mean.
To test whether this minimal thirteen residue interaction domain is sufficient to target a functional mSin3:HDAC corepressor complex to DNA, we fused amino acids 8-20 from Mad1 to the DNA binding domain of the yeast transcriptional activator GAL4 (GALDBD). The transcriptional activity of GALSID(8-20) WT was tested on a reporter containing four GAL4 binding sites cloned upstream of a minimal promoter (FIG. 6A). Consistent with our previous findings (Ayer et al., Mol. Cell. Biol. 16:5772-5781 (1996)), the GALDBD alone activates this reporter approximately 3-fold, and a fusion between the first 35 amino acids of Mad1 and the GALDBD repressed this level of reporter activity approximately 7-fold. […] Amino acids 10, 14, and 17 of the SID can be mutated to alanine without adversely affecting the interaction with PAH2 (FIG. 3). However, it is possible that these residues constitute a surface that interacts with other components of the mSin3-HDAC complex and/or components of the general transcriptional machinery. To test whether mutation of these residues may impair the ability of the SID to recruit a functional corepressor complex, we constructed a minimal SID containing the mutations Q10A, E14A, and D17A in the context of a GALDBD fusion (FIG. 6A).

[3] = target: B2; assay: directed yeast two-hybrid assay (LexA-SID with VP16PAH2, beta-galactosidase)
[4] = target: T1, LexA fused to amino acids 1-57 of Mad1 (bacterial; human, UniProt P0A7C2 1-202; Q05195 1-57); assay: as above
T1 construct: also called SID 1-57
T1 sequence: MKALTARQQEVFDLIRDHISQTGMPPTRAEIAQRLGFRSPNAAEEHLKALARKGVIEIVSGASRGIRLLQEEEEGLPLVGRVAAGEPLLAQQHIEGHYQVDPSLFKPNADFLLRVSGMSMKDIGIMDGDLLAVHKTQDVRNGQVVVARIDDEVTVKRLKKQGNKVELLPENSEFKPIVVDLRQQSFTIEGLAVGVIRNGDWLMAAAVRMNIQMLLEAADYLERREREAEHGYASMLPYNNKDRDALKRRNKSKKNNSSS

[5] = target: T2, LexA fused to amino acids 8-20 of wildtype Mad1 (bacterial; human, UniProt P0A7C2 1-202); assay: as above
T2 construct: also called SID 8-20; minimal SID
T2 sequence: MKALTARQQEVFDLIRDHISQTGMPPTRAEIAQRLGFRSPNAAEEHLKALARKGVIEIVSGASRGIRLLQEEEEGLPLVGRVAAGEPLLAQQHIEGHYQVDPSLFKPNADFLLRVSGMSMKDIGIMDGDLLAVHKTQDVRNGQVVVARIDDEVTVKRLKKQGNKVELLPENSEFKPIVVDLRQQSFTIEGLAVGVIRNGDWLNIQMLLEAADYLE

[6] = target: T3, GST-PAH2, a GST fusion to the PAH2 domain of mSIN3A (UniProt P08515 1-218 = GST; Q60520 300-383); assay: far Western blot, probe purified under native conditions
T3 construct: Expressed in bacteria, resolved by SDS-PAGE and immobilised on PVDF membrane
Procedure: Recombinant GST and GST-PAH2 were expressed in bacteria and purified on glutathione-Sepharose 4B (Amersham Pharmacia Biotech). […] The blots were blocked in far Western Buffer (PBS containing 0.1% Nonidet P-40, 1 mM EDTA, and 1 mM dithiothreitol) containing 5% nonfat dry milk for 1 h at 4° C. Purified probes were added to blots in 5 ml of far Western buffer containing 1% nonfat dry milk and incubated together at 4° C. overnight with rocking. Following washing with far Western buffer, the blots were air-dried and exposed 48 h for autoradiography.

GST = target: T4, GST (Schistosoma japonicum, UniProt P08515); assay: Far Western blot, 35S-labeled Mad1 probes on immobilized GST alone; type: binding; conditions: probe purified under denaturing conditions
T4 construct: made in house; host or cells: bacteria
Procedure: Far Western Blotting—Mad1His and Mad1(L12P/A16P)His (Ayer et al., Cell 80:767-776 (1995)), which have a polyhistidine tag fused to their carboxyl termini, were translated in vitro in 50 μl reactions using the TNT coupled reticulocyte lysate system (Promega) and ^35[S]methionine (NEN Life Science Products) and were purified under native or denaturing conditions. Ni^2+-NTA agarose (Qiagen) was blocked with rabbit reticuocyte lysate (diluted 1:3 in PBS) for 30 min at 4° C. and then incubated with the in vitro synthesized Mad1His and Mad1(L12P/A16P)His for 30 min at 4° C. in PBS native or 6 M guanidine hydrochloride, 0.1 M NaH2PO4, and 0.01 M Tris, pH 8.0 (denaturating conditions) followed by extensive washing with the same buffers. The bound proteins were eluted in PBS containing 0.5 M imidazole and then dialyzed overnight against PBS to remove the imidazole and allow for renaturation. Recombinant GST and GST-PAH2 were expressed in bacteria and purified on glutathione-Sepharose 4B (Amersham Pharmacia Biotech). The blots were prepared by resolving 1 μg of GST-PAH2 on 15% SDS-PAGE, followed by transfer to PVDF membrane. The blots were blocked in far Western Buffer (PBS containing 0.1% Nonidet P-40, 1 mM EDTA, and 1 mM dithiothreitol) containing 5% nonfat dry milk for 1 h at 4° C. […]

[7] = target: T5, PAH2 domain of mSin3A (GST-PAH2) (Mus musculus, UniProt Q60520); assay: Far Western blot, 35S-labeled Mad1 probes on immobilized GST-PAH2; type: binding, mammalian
T5 construct: GST-PAH2, a GST fusion to the PAH2 domain of mSIN3A; made in house; host or cells: bacteria
T5 sequence (Q60520 300-383 limits assumed): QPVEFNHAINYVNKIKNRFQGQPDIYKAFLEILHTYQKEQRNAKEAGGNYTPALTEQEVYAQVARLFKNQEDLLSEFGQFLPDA
Procedure: Far Western Blotting—Mad1His and Mad1(L12P/A16P)His (Ayer et al., Cell 80:767-776 (1995)), which have a polyhistidine tag fused to their carboxyl termini, were translated in vitro in 50 μl reactions using the TNT coupled reticulocyte lysate system (Promega) and ^35[S]methionine (NEN Life Science Products) and were purified under native or denaturing conditions. Ni^2+-NTA agarose (Qiagen) was blocked with rabbit reticuocyte lysate (diluted 1:3 in PBS) for 30 min at 4° C. and then incubated with the in vitro synthesized Mad1His and Mad1(L12P/A16P)His for 30 min at 4° C. in PBS native or 6 M guanidine hydrochloride, 0.1 M NaH2PO4, and 0.01 M Tris, pH 8.0 (denaturating conditions) followed by extensive washing with the same buffers. The bound proteins were eluted in PBS containing 0.5 M imidazole and then dialyzed overnight against PBS to remove the imidazole and allow for renaturation. Recombinant GST and GST-PAH2 were expressed in bacteria and purified on glutathione-Sepharose 4B (Amersham Pharmacia Biotech). The blots were prepared by resolving 1 μg of GST-PAH2 on 15% SDS-PAGE, followed by transfer to PVDF membrane. The blots were blocked in far Western Buffer (PBS containing 0.1% Nonidet P-40, 1 mM EDTA, and 1 mM dithiothreitol) containing 5% nonfat dry milk for 1 h at 4° C. Purified probes were added to blots in 5 ml of far Western buffer containing 1% nonfat dry milk and incubated together at 4° C. overnight with rocking. Following washing with far Western buffer, the blots were air-dried and exposed 48 h for autoradiography.
To determine whether the interaction between Mad1 and mSin3A is direct, we used far Western blot assays. In these experiments GST-PAH2, a GST fusion to the PAH2 domain of mSIN3A, and GST alone were resolved by SDS-PAGE followed by transfer to a PVDF membrane. […] Equal efficiency of transcription and translation of these proteins was confirmed by SDS-PAGE followed by autoradiography to detect the proteins (data not shown). These protein probes were purified on Ni^2+-NTA agarose under native or denaturing conditions. […]

[8] = probe purified under denaturing conditions and renatured

T4 sequence (P08515 whole entry): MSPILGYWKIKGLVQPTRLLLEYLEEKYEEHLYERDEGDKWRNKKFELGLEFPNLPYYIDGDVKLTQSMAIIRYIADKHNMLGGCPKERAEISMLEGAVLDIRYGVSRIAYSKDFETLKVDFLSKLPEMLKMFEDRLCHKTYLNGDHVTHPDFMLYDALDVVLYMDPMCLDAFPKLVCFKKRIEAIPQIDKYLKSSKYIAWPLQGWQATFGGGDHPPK

fusion between the first 35 amino acids of Mad1 and the GALDBD (from UniProt P04386 1-147; Q05195 1-35)
repression of a GAL4 DNA binding domain-responsive luciferase reporter in 293 cells [1]: 7 fold

GALSID Q10A, E14A, D17A: minimal SID containing the mutations Q10A, E14A, and D17A in the context of a GALDBD fusion (NIAMLLAAAAYLE; also: GAL4 DNA binding domain fusion; UniProt Q05195 8-20, looked up, variant Q10A E14A D17A)
repression of reporter activity [2]: repressed transcription to the same extent as the wild-type minimal SID

B1: LexA fused to SID 1-27 (other)
chain: MKALTARQQEVFDLIRDHISQTGMPPTRAEIAQRLGFRSPNAAEEHLKALARKGVIEIVSGASRGIRLLQEEEEGLPLVGRVAAGEPLLAQQHIEGHYQVDPSLFKPNADFLLRVSGMSMKDIGIMDGDLLAVHKTQDVRNGQVVVARIDDEVTVKRLKKQGNKVELLPENSEFKPIVVDLRQQSFTIEGLAVGVIRNGDWLMAAAVRMNIQMLLEAADYLERREREAE
notes: Carboxyl-terminal deletion of 30 amino acids from SID 1-57
fold better binding than SID 1-57 (relative beta-galactosidase activity) [3]: ~2 fold

B2
binding result [4]: binds | binding result [5]: binds

B3: Mad1(L12P/A16P)His (other, human, UniProt Q05195 1-221, looked up)
chain: MAAAVRMNIQMPLEAPDYLERREREAEHGYASMLPYNNKDRDALKRRNKSKKNNSSSRSTHNEMEKNRRAHLRLCLEKLKGLVPLGPESSRHTTLSLLTKAKLHIKKLEDCDRKAVHQIDQLQREQRHLKRQLEKLGIERIRMDSIGSTVSSERSDSDREEIDVDVESTDYLTGDLDWSSSSVSDSDERGSMQSLGSDEGYSSTSIKRIKLQDSHKACLGL
modifications: 35S-methionine labelled (in vitro translated)
notes: Mutant Mad1 probe in the far Western blot; not shown: polyhistidine tag fused to the carboxyl terminus
binding result [6]: no binding

B4: Mad1(L12P/A16P)His: polyhistidine-tagged mutant Mad1 protein with L12P/A16P point mutations in the SID (protein)
chain: MAAAVRMNIQMPLEAPDYLERREREAEHGYASMLPYNNKDRDALKRRNKSKKNNSSSRSTHNEMEKNRRAHLRLCLEKLKGLVPLGPESSRHTTLSLLTKAKLHIKKLEDCDRKAVHQIDQLQREQRHLKRQLEKLGIERIRMDSIGSTVSSERSDSDREEIDVDVESTDYLTGDLDWSSSSVSDSDERGSMQSLGSDEGYSSTSIKRIKLQDSHKACLGL
modifications: left off: small tags and cut ends
notes: polyhistidine-tagged mutant Mad1 protein with L12P/A16P point mutations in the SID
interaction with GST alone (GST): did not interact | interaction with GST-PAH2 [7, 8]: did not interact

B5: Mad1His: in vitro translated 35S-labeled Mad1 with a polyhistidine tag fused to its carboxyl terminus (protein)
chain: MAAAVRMNIQMLLEAADYLERREREAEHGYASMLPYNNKDRDALKRRNKSKKNNSSSRSTHNEMEKNRRAHLRLCLEKLKGLVPLGPESSRHTTLSLLTKAKLHIKKLEDCDRKAVHQIDQLQREQRHLKRQLEKLGIERIRMDSIGSTVSSERSDSDREEIDVDVESTDYLTGDLDWSSSSVSDSDERGSMQSLGSDEGYSSTSIKRIKLQDSHKACLGL
modifications: left off: small tags and cut ends
notes: in vitro translated 35S-labeled Mad1 with a polyhistidine tag fused to its carboxyl terminus
interaction with GST alone (GST): not with GST alone | interaction with GST-PAH2 [7, 8]: also interacted with GST-PAH2 | interaction with GST-PAH2 ([7]; probe purified under native conditions): able to interact

B6: fusion between the first 35 amino acids of Mad1 and the GALDBD: first 35 amino acids of Mad1 fused to the GAL4 DNA binding domain (protein)
chain: MKLLSSIEQACDICRLKKLKCSKEKPKCAKCLKNNWECRYSPKTKRSPLTRAHLTEVESRLERLEQLFLLIFPREDLDMILKMDSLQDIKALLTGLFVQDNVNKDAVTDRLASVETDMPLTLRQHRISATSSSEESSNKGQRQLTVSMAAAVRMNIQMLLEAADYLERREREAEHGYASMLP
repression of reporter activity [2]: approximately 7 fold

B7: GALSID(8-20) WT: amino acids 8-20 from Mad1 fused to the GAL4 DNA binding domain (protein)
chain: MKLLSSIEQACDICRLKKLKCSKEKPKCAKCLKNNWECRYSPKTKRSPLTRAHLTEVESRLERLEQLFLLIFPREDLDMILKMDSLQDIKALLTGLFVQDNVNKDAVTDRLASVETDMPLTLRQHRISATSSSEESSNKGQRQLTVSNIQMLLEAADYLE
repression of reporter activity [2]: repressed transcription to approximately the same level | repression of reporter activity ([2]; listed as minimal thirteen amino acid SID): functions similarly to the longer 35-amino acid SID
